Consider 3 substances from patent US20090169520A1, “Compounds, Pharmaceutical Compositions and Therapeutic Methods of Preventing and Treating Diseases and Disorders Associated With Amyloid Fibril Formation” (YISSUM RESEARCH DEVELOPMENT COMPANY OF THE HEBREW …, priority 2005, published 2009).

Ends that are not written are not given here.

One series deals with T1, Aβ (1-40) peptide (Homo sapiens, UniProt P05067).
T1 construct: synthetic Aβ (1-40) peptide; purchased Biosource, Camarillo, Calif., USA; host or cells: chemical synthesis
Nature of the series: In vitro formation of amyloid fibril from Aβ (1-40), Thioflavin T fluorescence. The class given is biochemical. Conditions: for effect on Aβ fibril formation (in words): 33 μM Aβ, ThT fluorescence; for Lag (fold change) / Rate (fold change): relative to No addition, asterisk = statistically significant. An excerpt: In vitro formation of amyloidfibril—In vitro formation of amyloid fibril was in the presence of the synthetic Aβ (1-40) peptide (Biosource, Camarillo, Calif., USA) as a precursor. The reporter molecule was Thioflavin T (ThT) (Sigma, Cat. No. T-3516, Jerusalem, Israel), a benzothiazole dye that undergoes a shift in its excitation spectrum (from 340 nm to 450 nm) when interacting with β-sheet amyloid structures. The resultant ThT fluorescence signal is proportional to the amount of amyloid formed (LeVine, 1993). A stock solution of Aβ in dimethylsulfoxide (DMSO) was diluted with phosphate-buffered saline (PBS) containing 0.02% Na-Azid to a final concentration of 162 μM and 20 μl of the diluted Aβ solution was placed in each well of a 96 multiwell plate (Nunc, Roskilde, Denmark). After 20 minutes of pre-incubation at room temperature of the Aβ samples (20 μl), 80 μl of 1.25 μM ThT in 50 mM glycine buffer, pH 8.5, was added. Incubation was with shaking at 200 rpm for 6 to 8 hours at the noted temperatures. Fluorescence was measured continuously or at 30-40 minute intervals, using a Spectro-fluorometer (Tecan, Maennedorf, Switzerland). Excitation and emission wavelengths were 450 nm and 485 nm, respectively. Enhancement of the fibrillation process by the different combinations of water-dissolved cholinesterases and peptides mimicking fragments thereof, was evaluated by dissecting the time curves into two stages: the lag before the onset of the fluorescence increase (the nucleation process) and the average rate of fluorescence increase at several time points (rate of fibrils formation). Statistics analysis was performed using the Kaleidagraph Software (Reading, Pa., USA).
BChE attenuates amyloid fibrils formation—Amyloid fibril (Aβ) formation was quantified by measuring changes in ThT fluorescence. As predicted, Aβ fibrils were spontaneously formed in vitro provided that the Aβ peptide was present above 5 μM. […] Reactions were performed in the absence or presence of increasing concentrations of purified human BChE (SEQ ID NO:2; FIG. 1a), recombinant ACHE-S (SEQ ID NO:6; FIG. 1b) or both (FIGS. 1c and d). […] Due to the complex kinetics of the fibril formation process the apparent rate of change in ThT fluorescence was repeatedly determined during the exponential phase of increase in its signal (at 390±20 minutes). […] In contrast, addition of similar doses of AChE to Aβ, predictably shortened by half the lag time prior to fibril formation, again in a dose dependent manner (FIG. 1e). The lag period therefore decreased from 240 minutes to 150 minutes and the maximal rate of fibril formation increased from 0.057 to 0.116 fluorescence units (FU)/min for Aβ alone as compared to Aβ in the presence of 0.36 μM AChE-S (FIG. 1b and Table 7, hereinbelow). When increasing doses of hBChE were added to a combined mix of 33 μM Aβ with 0.36 μM AChE-S, a dose-dependent interference with the fibril formation process was observed (FIG. 1c and 2a). Thus, BChE is capable of reducing the rate of fibrillation of Aβ alone, or Aβ which is formed in the presence of AChE.

A short description of series [1]: Solubility in water for CD measurements. The class given is physicochemical. Conditions: up to the concentration required for CD tests (1×10^−4 M); HFIP used instead. Here is the method: Circular Dichroism (CD) measurements—For circular dichroism (CD) measurements, ASP peptides were dissolved in double distilled water (DDW) to a final concentration of 1×10^−4 M. To reach this concentration, as required for the CD measurements, BSP had to be dissolved in 1,1,1,3,3,3-hexafluoro-2-propanol (HFIP). Direct CD spectra were recorded at room temperature using a CD Jasco J-810 Spectropolarimeter (Easton, Md., USA) with a 1 mm path length cell. Recordings were at 0.5 nm intervals in the spectral range 185-260 nm.
Molecular modeling points at putative structural differences between BSP and ASP—In search for structural differences between the BSP and ASP peptides, the circular dichroism (CD) properties of the synthesized series of BSP and ASP peptides were determined (FIG. 4). […] The helical features observed for ASP40 are in line with reports of others (Cottingham et al., 2003).

T1 sequence (P05067 672-711 limits assumed): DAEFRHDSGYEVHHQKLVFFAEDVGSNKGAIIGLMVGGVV

With “ASP23: synthetic AChE-S C-terminal peptide, mimics residues 592-614 in hAChE [reference compound]”, in the series with Aβ (1-40) peptide, the “effect on Aβ fibril formation (in words)” value is recorded as “no significant effect on amyloid formation”, the “Lag (fold change)” value was determined as 1.1 fold change and the “Rate (fold change)” value is 1.2 fold change.

As to “ASP40: synthetic AChE-S C-terminal peptide, mimics residues 575-614 in hAChE (DTLDEAERQWKAEFHRWSSYMVHWKNQFDHYSKQDRCSDL; ASP40 Synthetic peptide) [reference compound]”, in the series with Aβ (1-40) peptide, the “effect on Aβ fibril formation (in words)” value is “failed to show any significant capacity to activate or inhibit fibrillation”, the “Lag (fold change)” value came to 1.1 fold change and the “Rate (fold change)” value is 0.8 fold change.

“GNIDEAEWEWKAGFHRWNNYMMDWKNQFNDYTSKKESCVGL [BSP41]”: in series [1], the “solubility in water (in words)” value is “difficulties to solubilize”.
